# B1: BH3-interacting domain death agonist (Mus musculus), P70444 (parent)
# chain: MDSEVSNGSGLGAEHITDLLVFGFLQSSGCTRQELEVLGRELPVQAYWEADLEDELQTDGSQASRSFNQGRIEPDSESQEEIIHNIARHLAQIGDEMDHNIQPTLVRQLAAQFMNGSLSEEDKRNCLAKALDEVKTAFPRDMENDKAMLIMTMLLAKKVASHAPSLLRDVFHTTVNFINQNLFSYVRNLVRNEMD
# Variants of: B1
# Details: with BCL2L1, Q07817-1
# BCL2L1, Q07817-1, sequence (Q07817 whole entry): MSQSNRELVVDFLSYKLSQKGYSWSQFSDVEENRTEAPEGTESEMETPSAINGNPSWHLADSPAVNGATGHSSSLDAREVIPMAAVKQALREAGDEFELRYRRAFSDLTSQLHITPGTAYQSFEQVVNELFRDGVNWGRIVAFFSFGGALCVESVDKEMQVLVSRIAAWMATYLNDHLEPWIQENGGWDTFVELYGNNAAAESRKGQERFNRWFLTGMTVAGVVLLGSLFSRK
row,Variant,effect of a mutation on the interaction
1,M97A;D98A,disrupting interaction
